Measurements reported in patent publication US20210403576A1 (HELIXMITH, published 2021).

These binders were tested against T1, human c-Met (Sino Biological) (human, UniProt P08581 25-932, limits assumed) (assay: SPR (Biacore T200), IgG captured on Protein A CM5 chip, c-Met 0.15-2 nM as analyte).
T1 construct: Analyte in the Biacore assay; also called antigen (c-Met); printed as "human c-Met antibody (Sino Biological, Beijing, China)"
Description: The candidate antibodies selected in Example 4 were measured for binding affinity for the antigen (c-Met) with the aid of Biacore. […] The anti-c-Met antibodies to be analyzed were immobilized on Protein A CM5 chips (GE Healthcare, Little Chalfont, UK) through which human c-Met antibody (Sino Biological, Beijing, China) with various concentrations ranging 0.15 to 2 nM was allowed to pass, thereby acquiring sensorgrams. On the basis of the acquired sensorgrams, association constants kₒₙ and dissociation constants koff were measured to calculate Ko value, the ratio koff/kₒₙ.

T1 sequence (P08581 25-932 limits assumed): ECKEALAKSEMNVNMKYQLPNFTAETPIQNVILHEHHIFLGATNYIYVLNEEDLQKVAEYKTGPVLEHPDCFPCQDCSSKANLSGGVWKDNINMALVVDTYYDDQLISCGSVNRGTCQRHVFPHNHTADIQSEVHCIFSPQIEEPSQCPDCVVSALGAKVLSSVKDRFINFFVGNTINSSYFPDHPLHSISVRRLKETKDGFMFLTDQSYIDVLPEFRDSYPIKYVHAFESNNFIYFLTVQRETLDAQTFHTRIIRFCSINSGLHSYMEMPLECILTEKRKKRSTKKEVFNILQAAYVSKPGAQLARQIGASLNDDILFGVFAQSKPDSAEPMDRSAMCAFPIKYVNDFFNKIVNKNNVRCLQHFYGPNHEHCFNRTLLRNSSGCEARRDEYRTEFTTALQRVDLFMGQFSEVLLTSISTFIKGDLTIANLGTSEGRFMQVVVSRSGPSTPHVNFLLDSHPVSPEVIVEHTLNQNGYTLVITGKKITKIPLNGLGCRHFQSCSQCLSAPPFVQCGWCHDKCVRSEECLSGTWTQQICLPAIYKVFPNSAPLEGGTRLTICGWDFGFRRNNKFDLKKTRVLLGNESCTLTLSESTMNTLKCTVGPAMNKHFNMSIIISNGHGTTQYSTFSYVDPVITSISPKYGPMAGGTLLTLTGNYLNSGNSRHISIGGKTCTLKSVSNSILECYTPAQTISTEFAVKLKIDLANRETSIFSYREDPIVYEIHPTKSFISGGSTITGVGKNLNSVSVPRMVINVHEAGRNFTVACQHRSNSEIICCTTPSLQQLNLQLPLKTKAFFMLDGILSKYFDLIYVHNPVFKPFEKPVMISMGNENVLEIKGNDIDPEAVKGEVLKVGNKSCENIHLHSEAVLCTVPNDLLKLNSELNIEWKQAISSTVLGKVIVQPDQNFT

Kd [nM]	Relative KD to VMDO2 VH0/Vk0	Binder
0.349	0.67	VH5/Vk4 (antibody, IgG1, V domains shown, Full IgG1/kappa expressed in HEK 293 EBNA cells) VH: QVQLVQSGAEVKKPGSSVKVSCQGSGYSFPTHWITWVRQAPGQGLEWMGTIDPTDSYNFYGPSFQGRVTITADSSTSTAYMELSSLRSEDTAVYYCARDGNYYDSRGYYYDTFDMWGQGTLVTVSS VL: EIQMTQSPGTLSLSPGERATLSCRASQGISTYLAWYQQKPGQAPRLLIYSASTLESGVPDRFSGSGSGTDFTLTISRLEPEDFATYYCQQADSFPLTFGGGTKVEIK
0.431	0.83	VH6/Vk3 (antibody, IgG1, V domains shown, Full IgG1/kappa expressed in HEK 293 EBNA cells) VH: QVQLVQSGAEVKKPGSSVKVSCKASGYSFPTHWITWVRQAPGQGLEWMGTIDPTDSYNFYGPSFQGRVTITADKSTSTAYMELSSLRSEDTAVYYCARDGNYYDSRGYYYDTFDMWGQGTLVTVSS VL: DIQMTQSPGFLSLSPGERATLSCRASQGISTYLAWYQQKPGQAPRLLIYSASTLESGVPDRFSGSGSGTDFTLTISRLEPEDFATYYCQQADSFPLTFGGGTKVEIK
0.422	0.81	VH4/Vk3 (antibody, IgG1, V domains shown, Full IgG1/kappa expressed in HEK 293 EBNA cells) VH: QVQLVQSGAEVKKPGSSVKVSCQGSGYSFPTHWITWVRQAPGQGLEWMGTIDPTDSYNFYGPSFQGRVTITADSSTSTAYMELSSLRSEDTAMYYCARDGNYYDSRGYYYDTFDMWGQGTLVTVSS VL: DIQMTQSPGFLSLSPGERATLSCRASQGISTYLAWYQQKPGQAPRLLIYSASTLESGVPDRFSGSGSGTDFTLTISRLEPEDFATYYCQQADSFPLTFGGGTKVEIK
0.557	1.07	VH6/Vk5 (antibody, IgG1, V domains shown, Full IgG1/kappa expressed in HEK 293 EBNA cells) VH: QVQLVQSGAEVKKPGSSVKVSCKASGYSFPTHWITWVRQAPGQGLEWMGTIDPTDSYNFYGPSFQGRVTITADKSTSTAYMELSSLRSEDTAVYYCARDGNYYDSRGYYYDTFDMWGQGTLVTVSS VL: EIVLTQSPGTLSLSPGERATLSCRASQGISTYLAWYQQKPGQAPRLLIYSASTLESGIPDRFSGSGSGTDFTLTISRLEPEDFATYYCQQADSFPLTFGGGTKVEIK
0.391	0.75	VH6/Vk4 (antibody, IgG1, V domains shown, Full IgG1/kappa expressed in HEK 293 EBNA cells) VH: QVQLVQSGAEVKKPGSSVKVSCKASGYSFPTHWITWVRQAPGQGLEWMGTIDPTDSYNFYGPSFQGRVTITADKSTSTAYMELSSLRSEDTAVYYCARDGNYYDSRGYYYDTFDMWGQGTLVTVSS VL: EIQMTQSPGTLSLSPGERATLSCRASQGISTYLAWYQQKPGQAPRLLIYSASTLESGVPDRFSGSGSGTDFTLTISRLEPEDFATYYCQQADSFPLTFGGGTKVEIK
0.506	0.97	VH5/Vk5 (antibody, IgG1, V domains shown, Full IgG1/kappa expressed in HEK 293 EBNA cells) VH: QVQLVQSGAEVKKPGSSVKVSCQGSGYSFPTHWITWVRQAPGQGLEWMGTIDPTDSYNFYGPSFQGRVTITADSSTSTAYMELSSLRSEDTAVYYCARDGNYYDSRGYYYDTFDMWGQGTLVTVSS VL: EIVLTQSPGTLSLSPGERATLSCRASQGISTYLAWYQQKPGQAPRLLIYSASTLESGIPDRFSGSGSGTDFTLTISRLEPEDFATYYCQQADSFPLTFGGGTKVEIK
0.372	0.72	VH4/Vk4 (antibody, IgG1, V domains shown, Full IgG1/kappa expressed in HEK 293 EBNA cells) VH: QVQLVQSGAEVKKPGSSVKVSCQGSGYSFPTHWITWVRQAPGQGLEWMGTIDPTDSYNFYGPSFQGRVTITADSSTSTAYMELSSLRSEDTAMYYCARDGNYYDSRGYYYDTFDMWGQGTLVTVSS VL: EIQMTQSPGTLSLSPGERATLSCRASQGISTYLAWYQQKPGQAPRLLIYSASTLESGVPDRFSGSGSGTDFTLTISRLEPEDFATYYCQQADSFPLTFGGGTKVEIK
0.402	0.77	VH5/Vk3 (antibody, IgG1, V domains shown, Full IgG1/kappa expressed in HEK 293 EBNA cells) VH: QVQLVQSGAEVKKPGSSVKVSCQGSGYSFPTHWITWVRQAPGQGLEWMGTIDPTDSYNFYGPSFQGRVTITADSSTSTAYMELSSLRSEDTAVYYCARDGNYYDSRGYYYDTFDMWGQGTLVTVSS VL: DIQMTQSPGFLSLSPGERATLSCRASQGISTYLAWYQQKPGQAPRLLIYSASTLESGVPDRFSGSGSGTDFTLTISRLEPEDFATYYCQQADSFPLTFGGGTKVEIK
